The text below walks through data of doi:10.1101/2025.11.06.687086.

The target in this assay is A/Solomon Islands/3/2006 (H1N1) HA (influenza A virus A/Solomon Islands/3/2006 (H1N1)). Nature of the assay: cryo-EM structure.

On to “A/Solomon Islands/3/2006 (H1N1) HA (natural protein)”, for which the stoichiometry N came out at 3.

What is called stoichiometry N is a count of units in the complex or per binding partner.
